Data: IntAct's records for PubMed 18166655

B1: Death-associated inhibitor of apoptosis 2 (Drosophila melanogaster (Fruit fly)), Q24307 (parent)
chain: MTELGMELESVRLATFGEWPLNAPVSAEDLVANGFFATGNWLEAECHFCHVRIDRWEYGDQVAERHRRSSPICSMVLAPNHCGNVPRSQESDNEGNSVVDSPESCSCPDLLLEANRLVTFKDWPNPNITPQALAKAGFYYLNRLDHVKCVWCNGVIAKWEKNDNAFEEHKRFFPQCPRVQMGPLIEFATGKNLDELGIQPTTLPLRPKYACVDARLRTFTDWPISNIQPASALAQAGLYYQKIGDQVRCFHCNIGLRSWQKEDEPWFEHAKWSPKCQFVLLAKGPAYVSEVLATTAANASSQPATAPAPTLQADVLMDEAPAKEALALGIDGGVVRNAIQRKLLSSGCAFSTLDELLHDIFDDAGAGAALEVREPPEPSAPFIEPCQATTSKAASVPIPVADSIPAKPQAAEAVANISKITDEIQKMSVATPNGNLSLEEENRQLKDARLCKVCLDEEVGVVFLPCGHLATCNQCAPSVANCPMCRADIKGFVRTFLS
partner: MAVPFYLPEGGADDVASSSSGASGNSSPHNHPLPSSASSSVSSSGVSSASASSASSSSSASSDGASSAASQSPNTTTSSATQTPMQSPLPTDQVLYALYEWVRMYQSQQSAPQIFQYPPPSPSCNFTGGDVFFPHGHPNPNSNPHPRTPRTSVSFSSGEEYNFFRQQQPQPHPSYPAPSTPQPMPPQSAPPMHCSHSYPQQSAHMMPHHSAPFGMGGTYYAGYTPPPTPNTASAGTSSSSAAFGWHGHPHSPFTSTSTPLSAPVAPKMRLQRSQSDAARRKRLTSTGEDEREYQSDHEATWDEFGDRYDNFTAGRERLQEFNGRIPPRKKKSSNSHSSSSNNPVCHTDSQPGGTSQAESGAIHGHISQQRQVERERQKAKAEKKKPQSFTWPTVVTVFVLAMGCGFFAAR
B2: Caspase drICE (Drosophila melanogaster (Fruit fly)), O01382 (parent)
chain: MDATNNGESADQVGIRVGNPEQPNDHTDALGSVGSGGAGSSGLVAGSSHPYGSGAIGQLANGYSSPSSSYRKNVAKMVTDRHAAEYNMRHKNRGMALIFNHEHFEVPTLKSRAGTNVDCENLTRVLKQLDFEVTVYKDCRYKDILRTIEYAASQNHSDSDCILVAILSHGEMGYIYAKDTQYKLDNIWSFFTANHCPSLAGKPKLFFIQACQGDRLDGGVTMQRSQTETDGDSSMSYKIPVHADFLIAYSTVPGFYSWRNTTRGSWFMQSLCAELAANGKRLDILTLLTFVCQRVAVDFESCTPDTPEMHQQKQIPCITTMLTRILRFSDKQLAPAGRV
partner: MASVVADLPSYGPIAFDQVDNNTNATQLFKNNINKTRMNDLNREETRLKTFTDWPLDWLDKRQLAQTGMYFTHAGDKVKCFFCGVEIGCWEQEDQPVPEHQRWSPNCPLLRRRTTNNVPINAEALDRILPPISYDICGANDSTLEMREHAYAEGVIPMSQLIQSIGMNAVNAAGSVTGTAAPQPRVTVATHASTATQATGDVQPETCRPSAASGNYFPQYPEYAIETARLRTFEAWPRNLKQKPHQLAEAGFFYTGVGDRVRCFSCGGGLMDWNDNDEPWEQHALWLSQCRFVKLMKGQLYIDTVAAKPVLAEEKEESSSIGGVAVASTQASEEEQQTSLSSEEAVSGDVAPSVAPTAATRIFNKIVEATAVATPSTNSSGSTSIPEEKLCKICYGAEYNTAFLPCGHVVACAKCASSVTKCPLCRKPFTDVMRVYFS
B3: Death-associated inhibitor of apoptosis 2 (Drosophila melanogaster (Fruit fly)), Q24307 (parent)
chain: B1 chain
partner: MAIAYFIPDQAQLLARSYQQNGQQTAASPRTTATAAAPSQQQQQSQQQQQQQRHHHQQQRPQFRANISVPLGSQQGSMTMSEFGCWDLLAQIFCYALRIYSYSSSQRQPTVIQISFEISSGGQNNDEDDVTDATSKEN
B4: Caspase drICE (Drosophila melanogaster (Fruit fly)), O01382 (parent)
chain: B2 chain
partner: B1 chain
B5: Death-associated inhibitor of apoptosis 2 (Drosophila melanogaster (Fruit fly)), Q24307 (parent)
chain: B1 chain
partner: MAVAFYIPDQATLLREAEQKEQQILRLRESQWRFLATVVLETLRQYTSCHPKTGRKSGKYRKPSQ
B6: Death-associated inhibitor of apoptosis 2 (Drosophila melanogaster (Fruit fly)), Q24307 (parent)
chain: B1 chain
partner: B2 chain

Variants of: B1
Conditions: with hid_drome hid

Variant | effect of a mutation on the interaction
D100E | with no effect

Variants of: B1
Conditions: with hid_drome hid
Remark: another data set of the same source

Variant | effect of a mutation on the interaction
C249G | with no effect
C149G | with no effect
C149G;C249G | decreasing interaction strength
C46G | with no effect

Variants of: B2
Conditions: with diap1_drome Diap1, Q24306

Variant | effect of a mutation on the interaction
C211A | with no effect

Variants of: B3
Conditions: with grim_drome grim

Variant | effect of a mutation on the interaction
C149G;C249G | disrupting interaction strength
C249G | with no effect
C149G | decreasing interaction strength
C46G | with no effect

Variants of: B4
Conditions: with diap2_drome Diap2, Q24307

Variant | effect of a mutation on the interaction
A29V | decreasing interaction strength

Variants of: B5
Conditions: with rpr_drome rpr

Variant | effect of a mutation on the interaction
C149G;C249G | decreasing interaction strength
C149G | decreasing interaction strength
C249G | with no effect
C46G | with no effect

Variants of: B6
Conditions: with drice_drome Drice

Variant | effect of a mutation on the interaction
D100E | disrupting interaction strength
D263A | disrupting interaction strength
C249G | disrupting interaction strength
D163A | with no effect
C149G | with no effect
